Legend:
[1] = biological target: T1, CD27 protein (His-tagged, Sino Biological Inc. 10039-H08B1) (human, UniProt P26842 20-192); experiment: ELISA on coated His-tagged CD27
T1 construct: bought; coated onto ELISA plates; also called human CD27; recombinant protein; not shown: His tag
T1 sequence (looked up): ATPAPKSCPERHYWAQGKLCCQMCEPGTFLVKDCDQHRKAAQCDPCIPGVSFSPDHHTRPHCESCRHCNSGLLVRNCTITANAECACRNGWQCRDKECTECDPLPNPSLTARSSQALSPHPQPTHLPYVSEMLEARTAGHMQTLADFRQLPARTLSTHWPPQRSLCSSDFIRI

[2] = biological target: T2, CD27 expressed on the cell surface (HT1080_CD27 cells) (human, UniProt P26842 20-260); experiment: cellular binding assay, HT1080_CD27 cells
T2 construct: whole, on cells; also called K562_CD27
T2 sequence (looked up): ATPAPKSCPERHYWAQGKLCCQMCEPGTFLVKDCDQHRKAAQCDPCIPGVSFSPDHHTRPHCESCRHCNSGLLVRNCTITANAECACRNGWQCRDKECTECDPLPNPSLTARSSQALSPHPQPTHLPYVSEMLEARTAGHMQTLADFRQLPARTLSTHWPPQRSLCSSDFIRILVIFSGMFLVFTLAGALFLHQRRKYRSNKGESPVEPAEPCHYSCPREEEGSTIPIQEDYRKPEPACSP

[3] = biological target: T2, CD27 expressed on the cell surface …; experiment: cell-based or functional assay
Note: test concentration or dose not given here.

B1: P018.S.06.A.F06 (antibody, V domains shown)
VH: QSVEESGGRLVTPGTPLTLTCAASGFSLNSYVMSWVRQAPGKGLEWIGYIDYGGAPYYASWAKGRFTISKTSTTVELKITSPTIEDTGTYFCARGGYGGYVLVTALWGPGTLVTVSS
VL: DIVMTQTPASVSEPVGGTVTIKCQASENIYSYLAWYQQKPGQPPKLLIYQASTLASGVSSRFKGSGSGTQFTLTISDLESADAATYYCQTYYGGSTYGNGFGGGTEVVVE
notes: V regions on human Ig constant parts; also called AB27_110
- ELISA [abs. corr.] [1]: 3.17 abs. corr.
- Cellular binding assay [RFU] [2]: 326 RFU
- IL-8, cross-linked by F(ab')2 fragment [abs. corr.] [3]: 1.03 abs. corr.
- IL-8 [abs. corr.] [3]: 0.7 abs. corr.

B2: P018.S.03.A.H03 (antibody, V domains shown)
VH: QSLEESGGDLVKPEGSLTLTCTASGLDFSSSYWICWVRQAPGKGLEWIACIHAGSSGTTHYATWAKGRFTISKTSSTTVTLQMTSLTAADTATYFCARGAVYGGGSYDNFNLWGPGTLVTVSS
VL: AYDMTQTPASVEVAVGGTVTIKCQASQSIGTYLSWYQQKPGQPPKLLIYAASTLASGVQPRFKGSGSGTQFTLTISGVQSDDAATYYCQQGYSADNVANSFGGGTEVVVK
notes: V regions on human Ig constant parts; also called AB27_61
- ELISA [abs. corr.] [1]: 3.15 abs. corr.
- Cellular binding assay [RFU] [2]: 289 RFU
- IL-8, cross-linked by F(ab')2 fragment [abs. corr.] [3]: 1.09 abs. corr.
- IL-8 [abs. corr.] [3]: 0.588 abs. corr.

B3: P018.S.06.A.F03 (antibody, V domains shown)
VH: QSLEESGGDLVRPGASLTLTCTASGLSFSDRYWISWVRQAPGKGLEWIASIYTGSDGVADYATWAKGRVTISKTSSTTVTLQMTSLTAADTATYFCARDREYGSNTGVYSLWGPGTLVTVSS
VL: DVLMTQTPSSVSPAVGGTVTIKCQASQNIYSNLAWYQQKPGQRPKLLVYDASNLEYGVPSRFKGSGSGTEYTLTISDLESADAANYYCQCTYYGNNYITFGGGTEVVVR
notes: V regions on human Ig constant parts; also called AB27_108
- ELISA [abs. corr.] [1]: 3.16 abs. corr.
- Cellular binding assay [RFU] [2]: 304 RFU
- IL-8, cross-linked by F(ab')2 fragment [abs. corr.] [3]: 1.08 abs. corr.
- IL-8 [abs. corr.] [3]: 0.063 abs. corr.

B4: P018.S.03.A.F03 (antibody, V domains shown)
VH: QSLEESGGRLVTPGGSLTLTCTVSGIDLSSYAMGWVRQAPGKGLEYLGIIYTSNRTHYATWAKGRFTISKTSSTTVDLKATSLTTEDTATYFCGRYGRGSGGYYYGMDLWGPGTLVTVSS
VL: DIVMTQTPASVEAAVGGTVTIKCQASQSGDDYCSWYQQKPGQRPKLLIYAASTLASGVPSRFRGSRSGTEYTLTISDLESADAATYYCQNYCAGSGVCLGVAFGGGTEVVVK
notes: V regions on human Ig constant parts; also called AB27_54
- ELISA [abs. corr.] [1]: 3.15 abs. corr.
- Cellular binding assay [RFU] [2]: 223 RFU
- IL-8, cross-linked by F(ab')2 fragment [abs. corr.] [3]: 1.35 abs. corr.
- IL-8 [abs. corr.] [3]: 0.106 abs. corr.

B5: P018.S.04.A.C05 (antibody, V domains shown)
VH: QSVEESGGRLVTPGTPLTLTCTVSGFSLNYYSMAWVRQVPGEGLEWIGTINTGGGTYYASWAKGRFTISKTSTTVDLKMTSLTAADTATYFCARSDGTGITYYNLWGQGALVTVSS
VL: ALVMTQTASPVSAAVGGTVTINCQASETIYSNLAWYQQKQGQPPKLLIYRASNLASGVPSRFSGSESGTQFTLTISGVQSDDAATYYCQGYYNTGITGFGGGTEVVVK
notes: V regions on human Ig constant parts; also called AB27_70
- ELISA [abs. corr.] [1]: 3.17 abs. corr.
- Cellular binding assay [RFU] [2]: 292 RFU
- IL-8, cross-linked by F(ab')2 fragment [abs. corr.] [3]: 1.43 abs. corr.
- IL-8 [abs. corr.] [3]: 0.382 abs. corr.

B6: P018.S.04.A.E02 (antibody, V domains shown)
VH: QSVEESGGRLVTPGTPLTLTCTVSGFSLNNYDMNWVRQAPGKGLEWVGYIDTGGSAYYASWVNGRFTISKTSTTVELKMTSLTASDTATYFCARGYTHGYLWGQGTLVTVSS
VL: ALVMTQTPSSVSAAVGGTVTINCQASQNVYNNLAWYQQKPGQPPKLLIDSASTLASGVSSRFKGSGSGTEFTLTISDLESADAATYYCQSADWESSNFFWAFGGGTEVVVK
notes: V regions on human Ig constant parts; also called AB27_74
- ELISA [abs. corr.] [1]: 3.52 abs. corr.
- Cellular binding assay [RFU] [2]: 463 RFU
- IL-8, cross-linked by F(ab')2 fragment [abs. corr.] [3]: 1.91 abs. corr.
- IL-8 [abs. corr.] [3]: 0.676 abs. corr.

B7: P018.S.08.A.A01 (antibody, V domains shown)
VH: QSVEESGGRLVTPGTPLTLTCTVSGFSLNNYDMNWVRQAPGKGLEWVGYIDTGGSAYYANWVNGRFTISKTSTTVELKMTSLTASDTATYFCARGYIHGYLWGQGTLVTVSS
VL: ALVMTQTPSSVSAAVGGTVTINCQASQNVYNNLAWYQQRPGQPPELLIDSASTLASGVSSRFKGSGSGTEFTLTISDLESADAATYYCQSADWESSNFFWAFGGGTEVVVK
notes: V regions on human Ig constant parts; also called AB27_135
- ELISA [abs. corr.] [1]: 3.42 abs. corr.
- Cellular binding assay [RFU] [2]: 448 RFU
- IL-8, cross-linked by F(ab')2 fragment [abs. corr.] [3]: 1.57 abs. corr.
- IL-8 [abs. corr.] [3]: 0.876 abs. corr.

B8: P018.S.09.A.A03 (antibody, V domains shown)
VH: QEQLVESGGGLVQPEGSLTLTCTASGFSFSSSYYMCWVRQAPGKGPEWIACIYTYSGDTDYANWAKGRFTISKTSSTTVTLQMTSLTAADTATYFCAKAGYGGYGYPIFNLWGPGTLVTVSS
VL: AFELTQTPSSVEAAVGGTVTIKCQASQSIGSSLAWYQQKPGQRPKLLMYYVSTLASGVSSRFKGSGSGTEFTLTISDLESADAATYYCQSYYGSGTTVFWAFGGGTEVVVK
notes: V regions on human Ig constant parts; also called AB27_144
- ELISA [abs. corr.] [1]: 3.16 abs. corr.
- Cellular binding assay [RFU] [2]: 360 RFU
- IL-8, cross-linked by F(ab')2 fragment [abs. corr.] [3]: 1.54 abs. corr.
- IL-8 [abs. corr.] [3]: 0.263 abs. corr.

B9: P018.S.10.A.E04 (antibody, V domains shown)
VH: QSLEESGGDLVKPGASLTLTCTASGFSFSSSYWICWVRQAPGKGLEWVACISAPGSGSTFDASWAKGRFTISKTSSTTVTLQMTSLTAADTATYFCARFYAGGSGDYFDLWGPGTLVTVSS
VL: QIVMTQTPSSTSEPVGGTVSIKCQASQNIGSYLAWYQQKPGQPPKVLIYTTSDLASGVPSRFKGSGSGTQFTLTISDLESDDAATYYCLGVYGYSSDDVAFGGGTEVVVK
notes: V regions on human Ig constant parts; also called AB27_177
- ELISA [abs. corr.] [1]: 3.15 abs. corr.
- Cellular binding assay [RFU] [2]: 280 RFU
- IL-8, cross-linked by F(ab')2 fragment [abs. corr.] [3]: 2.29 abs. corr.
- IL-8 [abs. corr.] [3]: 0.339 abs. corr.

B10: P018.S.01.A.G06 (antibody, V domains shown)
VH: QSLEESGGGLFKPTDTLTLTCTVSGIDLSRYAMGWVRQAPGKGLEYIGIISVGGGTYYANWIKGRFTISSTSTTVDLKITSPTTEDTATYFCARSPYASTSASAFNLWGPGTLVTVSS
VL: AFELTQTPSSVEAAVGGTVTIKCQASQSIYSYLSWYQQKPGQPPKLLIYEASKLASGVPSRFSGSGSGTQFTLTISDLESADAATYYCQSYSNTNTNTFGGGTEVVVK
notes: V regions on human Ig constant parts; also called AB27_24
- ELISA [abs. corr.] [1]: 3.17 abs. corr.
- Cellular binding assay [RFU] [2]: 313 RFU
- IL-8, cross-linked by F(ab')2 fragment [abs. corr.] [3]: 1.09 abs. corr.
- IL-8 [abs. corr.] [3]: 0.491 abs. corr.

B11: P018.S.03.A.H02 (antibody, V domains shown)
VH: QSLEESGGRLMTPGGSLTLTCTVSGFSLSDYNMQWVRQAPGEGLEWIGIISLGGTTDYANWVKGRFTISKTSTTVDLKMTSLTASDTATYFCARDPAGGNWAELDLWGQGTLVTVSS
VL: DIVMTQTPASVSEPVGGTVTIKCQASQSISSWLSWFQQKPGQPPKLLIYDASTLASGVPSRFKGSGSGTEFTLTISDLESADAATYYCQQGSTISNVDNAFGGGTEVVVK
notes: V regions on human Ig constant parts; also called AB27_60
- ELISA [abs. corr.] [1]: 3.15 abs. corr.
- Cellular binding assay [RFU] [2]: 395 RFU
- IL-8, cross-linked by F(ab')2 fragment [abs. corr.] [3]: 1.07 abs. corr.
- IL-8 [abs. corr.] [3]: 0.13 abs. corr.

B12: P018.S.06.A.E04 (antibody, V domains shown)
VH: QEQLEESGGDLVQPEGSLTLTCTVSGFSFDSNYWICWVRQAPGKGPEWIACIMTGDGSIYYATWAKGRFTISKTSSTTVTLQMTSLTAADTATYFCARGYDGIHGGDNYGHVFNLWGPGTLVTVSS
VL: AFELTQTPFSVSAVVGGTVTINCQASENIYTLLAWYQQKSGQPPKLLIYRASTLTSGVPSRFKGSGSGTQFTLTISDLESADAATYYCQGYYVDSGNTFGGGTEVVVK
notes: V regions on human Ig constant parts; also called AB27_106
- ELISA [abs. corr.] [1]: 3.16 abs. corr.
- Cellular binding assay [RFU] [2]: 281 RFU
- IL-8, cross-linked by F(ab')2 fragment [abs. corr.] [3]: 1.22 abs. corr.
- IL-8 [abs. corr.] [3]: 0.327 abs. corr.
